The values below come from patent US20110256557A1, “IDENTIFYING PARATHYROID HORMONE AGONISTS AND ANTAGONISTS” (DISCOVERYBIOMED, INC., priority 2008, published 2011).

The test system of experiment [1] is luciferase reporter bearing TCF/LEF binding elements. Description: TCF/LEF luciferase reporter assay in UMR-106 cells. The experiment is classed as cell-based, rat. The following applies: UMR-106 cells treated with PTH. From the text: HEK293, UMR-106 and mouse embryonic fibroblast (MEF) cells were maintained in Dulbecco's Modified Eagle Medium (DMEM) with 10% Fetal Calf Serum (FCS). Mouse Wnt3a conditioned medium (Wnt3a CM) was produced from mouse L cells stably transfected with mouse Wnt3a (American Type Culture Collection; Manassas, Va.) and control conditioned medium (Control CM) was from non-transfected L cells. IgG, LRP6N-IgG, DKK1, Sclerostin, VSVG-LRP6N and Myc-Fz8CRD conditioned media were produced from HEK 293 cells transfected with the individual plasmids. Transfections were carried out using lipofectamine reagent (Invitrogen; Carlsbad, Calif.). Luciferase assays were carried out in either UMR-106 or HEK 293 cells as described previously (Wan et al., Am. J. Pathol. 166:1379-92 (2005)), with 0.3 μg of TCF-Luc reporter plasmid plus 50 ng of Renilla luciferase plasmid (internal control) per well in the 12-well plate. Experiments were repeated at least three times with triplicate for each experiment.
(In general: In a reporter assay the amount or activity of a reporter protein is the signal.)

The subject of experiment [2] is β-catenin. Description: Western blot of cytosolic β-catenin in HEK 293 cells. Type of experiment: cell-based. The note with it: for effect on PTH-elevated β-catenin level (accumulation in cytosol/cytoplasm): PTH-treated cells (FIG. 5 cells not stated; FIG. 10, 27 HEK293). Here is the method: (§1) Cells were harvested in cavitation buffer (5 mM HEPES, pH 7.4, 3 mM MgCl2, 1 mM EGTA, 250 mM sucrose) containing protease and phosphatase inhibitors and homogenized by nitrogen cavitation (200 p.s.i., for 5 minutes) in a cell disruption bomb (Parr Instrument Co.; Moline, Ill.). The cell homogenate was centrifuged twice at 700 g for 10 minutes to pellet the nuclei. The supernatant was further centrifuged at 100,000 g (Beckman SW50.1 rotor) for 1 hour to separate the membrane and cytosol fractions, and the resulting membrane pellet was washed three times with cavitation buffer before use in the assays (Zhang et al., Biochem. J. 343:541-9 (1999)). Immunoprecipitation and Western blot analysis of cell lysates were performed as described previously (Wan et al., Am. J. Pathol. 166:1379-92 (2005)).

Experiment [3] has as its target T1, PTH1R (Homo sapiens, UniProt Q03431).
T1 sequence (Q03431 27-593): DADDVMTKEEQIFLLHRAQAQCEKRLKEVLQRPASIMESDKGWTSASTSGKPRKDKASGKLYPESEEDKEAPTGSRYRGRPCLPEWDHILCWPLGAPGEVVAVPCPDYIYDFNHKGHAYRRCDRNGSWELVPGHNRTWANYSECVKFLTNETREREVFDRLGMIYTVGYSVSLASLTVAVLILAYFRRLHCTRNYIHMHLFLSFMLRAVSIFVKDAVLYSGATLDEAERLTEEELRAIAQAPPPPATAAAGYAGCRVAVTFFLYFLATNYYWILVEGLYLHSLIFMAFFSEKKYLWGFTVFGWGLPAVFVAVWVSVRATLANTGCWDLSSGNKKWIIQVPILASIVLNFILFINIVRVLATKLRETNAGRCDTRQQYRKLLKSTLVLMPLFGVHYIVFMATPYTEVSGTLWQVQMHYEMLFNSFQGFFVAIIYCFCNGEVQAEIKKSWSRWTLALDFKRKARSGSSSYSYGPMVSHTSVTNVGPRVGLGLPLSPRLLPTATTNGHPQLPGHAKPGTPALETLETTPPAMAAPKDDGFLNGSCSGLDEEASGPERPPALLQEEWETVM
Put plainly: Co-immunoprecipitation of exogenous LRP5/LRP6 constructs with PTH1R in HEK293 cells. The experiment is classed as cell-based. The following applies: co-expressed with PTH1R in HEK293 cells.
Description: PTH1R tagged with HA was subcloned into pcDNA3.1. cDNAs from human LRP5 (Mao et al., Mol. Cell. 7:801-9 (2001)) and LRP6 (Tamai et al., Nature 407:530-35 (2000)) tagged with HA and VSVG were subcloned into pCMV and pCS2^+, respectively. LRP6N+T (LRP6 N-terminal plus the transmembrane domain) and LRP6T+C (LRP6 transmembrane domain plus C-terminal) tagged with VSVG were subcloned into pCS2^+. LRP6N+1479m, LRP6N+1490m, LRP6N+1493m and LRP6N+1496m were generated by mutagenesis of either the serine (at amino acid 1490 or amino acid 1496) or threonine (at amino acid 1479 or amino acid 1493) to alanine LRP6N-IgG was generated by fusing the LRP6 extracellular domain with IgG (Tamai et al., Nature 407:530-35 (2000)). si-GFP (Wan et al., Am. J. Pathol. 166:1379-92 (2005)) and si-LRP6 plasmids were generated using a BS/U6 vector. Briefly, a 22-nucleotide oligo (oligo 1) corresponding to nucleotides 2981 to 3002 of the human LRP6 coding region was first inserted into the BS/U6 vector digested with ApaI (blunted) and HindIII. The inverted motif that contains the six-nucleotide spacer and five Ts (oligo 2) was then subcloned into the HindIII and EcoRI sites of the intermediate plasmid to generate BS/U6/LRP5/6.
as §1

B1: sclerostin: secreted protein binding to LRP6 at the extracellular domain (protein, UniProt Q9BQB4 24-213, looked up)
Sclerostin: QGWQAFKNDATEIIPELGEYPEPPPELENNKTMNRAENGGRPPHHPFETKDVSEYSCRELHFTRYVTDGPCRSAKPVTELVCSGQCGPARLLPNAIGRGKWWRPSGPDFRCIPDRYRAQRVQLLCPGGEAPRARKVRLVASCKCKRLTRFHNQSELKDFGTEAARPQKGRKPRPRARSAKANQAELENAY
As to B1, the “effect on PTH-stimulated TCF/LEF luciferase (transcriptional) activity” value in experiment [1] is on record as “disrupted”. Besides, the “effect on PTH-elevated β-catenin level (accumulation in cytosol/cytoplasm)” value in experiment [2] was “disrupted”.

B2: DKK1: secreted protein binding to LRP6 at the extracellular domain (protein, UniProt O94907 32-266, looked up)
Dickkopf-related protein 1: TLNSVLNSNAIKNLPPPLGGAAGHPGSAVSAAPGILYPGGNKYQTIDNYQPYPCAEDEECGTDEYCASPTRGGDAGVQICLACRKRRKRCMRHAMCCPGNYCKNGICVSSDQNHFRGEIEETITESFGNDHSTLDGYSRRTTLSSKMYHTKGQEGSVCLRSSDCASGLCCARHFWSKICKPVLKEGQVCTKHRRKGSHGLEIFQRCYCGEGLSCRIQKDHHQASNSSRLHTCQRH
On to B2, for which the “effect on PTH-stimulated TCF/LEF luciferase (transcriptional) activity” value in experiment [1] is “disrupted”. The “effect on PTH-elevated β-catenin level (accumulation in cytosol/cytoplasm)” value in experiment [2] is recorded as “disrupted”. The “effect on Wnt3a-elevated β-catenin level” value in experiment [2] (Wnt3a-treated cells (FIG. 5 cells not stated; FIG. 27 HEK293)) is recorded as “reduced”.

B3: LRP6N+T: truncated LRP6 containing the extracellular and transmembrane domains, tagged with VSVG (protein)
chain: APLLLYANRRDLRLVDATNGKENATIVVGGLEDAAAVDFVFSHGLIYWSDVSEEAIKRTEFNKTESVQNVVVSGLLSPDGLACDWLGEKLYWTDSETNRIEVSNLDGSLRKVLFWQELDQPRAIALDPSSGFMYWTDWGEVPKIERAGMDGSSRFIIINSEIYWPNGLTLDYEEQKLYWADAKLNFIHKSNLDGTNRQAVVKGSLPHPFALTLFEDILYWTDWSTHSILACNKYTGEGLREIHSDIFSPMDIHAFSQQRQPNATNPCGIDNGGCSHLCLMSPVKPFYQCACPTGVKLLENGKTCKDGATELLLLARRTDLRRISLDTPDFTDIVLQLEDIRHAIAIDYDPVEGYIYWTDDEVRAIRRSFIDGSGSQFVVTAQIAHPDGIAVDWVARNLYWTDTGTDRIEVTRLNGTMRKILISEDLEEPRAIVLDPMVGYMYWTDWGEIPKIERAALDGSDRVVLVNTSLGWPNGLALDYDEGKIYWGDAKTDKIEVMNTDGTGRRVLVEDKIPHIFGFTLLGDYVYWTDWQRRSIERVHKRSAEREVIIDQLPDLMGLKATNVHRVIGSNPCAEENGGCSHLCLYRPQGLRCACPIGFELISDMKTCIVPEAFLLFSRRADIRRISLETNNNNVAIPLTGVKEASALDFDVTDNRIYWTDISLKTISRAFMNGSALEHVVEFGLDYPEGMAVDWLGKNLYWADTGTNRIEVSKLDGQHRQVLVWKDLDSPRALALDPAEGFMYWTEWGGKPKIDRAAMDGSERTTLVPNVGRANGLTIDYAKRRLYWTDLDTNLIESSNMLGLNREVIADDLPHPFGLTQYQDYIYWTDWSRRSIERANKTSGQNRTIIQGHLDYVMDILVFHSSRQSGWNECASSNGHCSHLCLAVPVGGFVCGCPAHYSLNADNRTCSAPTTFLLFSQKSAINRMVIDEQQSPDIILPIHSLRNVRAIDYDPLDKQLYWIDSRQNMIRKAQEDGSQGFTVVVSSVPSQNLEIQPYDLSIDIYSRYIYWTCEATNVINVTRLDGRSVGVVLKGEQDRPRAVVVNPEKGYMYFTNLQERSPKIERAALDGTEREVLFFSGLSKPIALALDSRLGKLFWADSDLRRIESSDLSGANRIVLEDSNILQPVGLTVFENWLYWIDKQQQMIEKIDMTGREGRTKVQARIAQLSDIHAVKELNLQEYRQHPCAQDNGGCSHICLVKGDGTTRCSCPMHLVLLQDELSCGEPPTCSPQQFTCFTGEIDCIPVAWRCDGFTECEDHSDELNCPVCSESQFQCASGQCIDGALRCNGDANCQDKSDEKNCEVLCLIDQFRCANGQCIGKHKKCDHNVDCSDKSDELDCYPTEEPAPQATNTVGSVIGVIVTIFVSGTVYFI
modifications: left off: small tags and cut ends
notes: truncated LRP6 containing the extracellular and transmembrane domains, tagged with VSVG
As for B3, the “binding of LRP6 construct to PTH1R (IP assay)” value in experiment [3] is given as “associated with PTH1R as effectively as did full-length LRP6”.

B4: LRP6T+C: truncated LRP6 containing the transmembrane and intracellular domains, tagged with VSVG (protein)
chain: TNTVGSVIGVIVTIFVSGTVYFICQRMLCPRMKGDGETMTNDYVVHGPASVPLGYVPHPSSLSGSLPGMSRGKSMISSLSIMGGSSGPPYDRAHVTGASSSSSSSTKGTYFPAILNPPPSPATERSHYTMEFGYSSNSPSTHRSYSYRPYSYRHFAPPTTPCSTDVCDSDYAPSRRMTSVATAKGYTSDLNYDSEPVPPPPTPRSQYLSAEENYESCPPSPYTERSYSHHLYPPPPSPCTDSS
modifications: left off: small tags and cut ends
notes: truncated LRP6 containing the transmembrane and intracellular domains, tagged with VSVG
Consider B4, for which the “binding of LRP6 construct to PTH1R (IP assay)” value in experiment [3] is given as “could barely be detected”.
